Measured values taken from the supplement of paper PMC7125110.
± gives the standard error. Fewer inactive variants are shown than the library holds.

B1: glmS ribozyme (parent)
chain: AUAAAAGCGCCAGAACUACAGAAAUGUAGUUGACGAGGAGGAGGUUUAUCGAAUUUUCGGCGGAUGCCUCCAAA

Variants of: B1
Assay: self-cleavage kobs at 10000 uM GlcN6P; higher = faster cleavage; RNA array
Conditions: with glucosamine-6-phosphate
Outline: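 E. coli RNA polymerase transcribed barcoded ribozyme variants in situ on sequenced MiSeq chips, which were tracked via a hybridised Cy3 probe at 37 °C. Tiles were imaged over ~14 h after glucosamine-6-phosphate (40 μM to 10 mM) in HEPES/KCl/Mg(OAc)2 buffer was flowed in. Normalised per-tile medians were fit to one- or two-exponential decays for kobs, and kcat and KM came from weighted Michaelis–Menten fits.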

Variant	self-cleavage kobs at 10000 uM GlcN6P [s⁻¹]
AUAAAAGCGCCGGAACUACAGAAAUGUAGUUGACGAGGAGGAGGUGUAUCGAUUUUUCGGCGGAUGCCUCCAAA [A12G U46G A53U]	9.96e-05 ± 1.8e-05
AUAAAAGCGCUAGAACUACAGAAAUGUAGUUGAAGAGGAGGACGUUUAUCGAAUUUUCGGCGGAUGCCUCCAAA [C11U C34A G43C]	< 1e-05
AUAAAAGCGCCGGAACUACAGAAAUGUAAUUGACGAGGAGGAGGUCUAUCGAAUUUUCGGCGGAUGCCUCCAAA [A12G G29A U46C]	6.56e-05 ± 1.2e-05
AUAAAAGCGCAAUAACUACAGAAAUGUAGUUGACGAGGAGGAGGUUUAUCGAGUUUUCGGCGGAUGUGUCCAAA [C11A G13U A53G C67U C68G]	3.78e-05 ± 1.7e-05
AUAAAAGCGCCCGAACUACAGAAAUGUAGUUGACGAGGAGGCGGUUUAUCGAAUUUUCCGCGGAUGCCUCCAAA [A12C A42C G59C]	< 1e-05
AUAAAAGCGCCCGAACUACAGAAAUGUAUUUGACGAGGAGGAGGUUUAUCGAAUUUUCGGCGGAUGCCGCCAAA [A12C G29U U69G]	3.54e-05 ± 1.6e-05
AUAAAAGCGCAAGAACUACAGAAAUGUAGUUGACGAGGAGGAGGUUUAUCGACUUUUCGGCGGAUGCCUCCAAA [C11A A53C]	2.2e-05 ± 1.1e-05
AUAAAAGCGCACGAACUACAGAAAUGUAGUCGACGAGGAGGAGGUUUAACGAAUUUUCGGCGGAUGCCUCCAAA [C11A A12C U31C U49A]	< 1e-05
AUAAAAGCGCCUGAACUACAGAAAUGUAGUUGACGAGGAGGUGGUUUAUCGAAUUUUCGGCGGAUGCCUUCAAA [A12U A42U C70U]	0.00014 ± 3.1e-05
AUAAAAGCGCAAGAACUACAGAAAUGUAGUUGACGAGGAGGAGUUUUAUCGAAUUUUCGGCGGAUGUCUCCAAA [C11A G44U C67U]	4.33e-05 ± 2.1e-05
AUAAAAGCGCUAGAACUACAGAAAUGUAGUUGAGGAGGAGGAGGUUUAUCAUAUUUUCGGCGGAUGCGUCCAAA [C11U C34G G51A A52U C68G]	0.000563 ± 0.00022
AUAAAAGCGCUAGAACUACAGAAAUGUAGUCGACGAGGAGGGGGUUUAUCGAUUUUUCGGCGGAUGCCUCCAAA [C11U U31C A42G A53U]	0.000372 ± 8e-05
AUAAAAGCGCCGGCACUACAGAAAUGUAGUUGACGAGGAGGAGGUUUAUCGAAUUUUCGGCGGAUGUCUCCAAA [A12G A14C C67U]	7.11e-05 ± 1.5e-05
AUAAAAGCGCUAGAGCUACAGAAAUGUAGUCGACGAGGAGGAGGUUUAUCGAAUUUUCGGCGGAUGGCUCCAAA [C11U A15G U31C C67G]	6.25e-05 ± 1.8e-05
AUAAAAGCGCCCGAACUACAGAAAUGUAGUCGACGAGGAGGAUUUUUAUCGAAUUUUCGGCGGAUGCCUCCAAA [A12C U31C G43U G44U]	< 1e-05
AUAAAAGCGCAAGAACUACAGAAAUGUAGUUGACGAGGAGGAGGUUUAUCGAAUUUUAAGCGGAUGCCUCCAAA [C11A C58A G59A]	6.59e-05 ± 1.3e-05
AUAAAAGCGCAAGGACUACAGAAAUGUAGUUGAUGAGGAGGAGGUUUAUCGAAUUUUCGGCGGAUCCCUCCAAA [C11A A14G C34U G66C]	< 1e-05
AUAAAAGCGCUAGAACUACAGAAAUGUAGUUGACGAGGAGGAGGUUUGUUGAAUUUUCGGCGGAUGCCUCUAAA [C11U A48G C50U C71U]	< 1e-05
AUAAAAGCGCCGGAACUACAGAAAUGUAGUUGACGAAGAGGAAGUUUAUCGGAUUUUCGGCGGAUGCCUCCAAA [A12G G37A G43A A52G]	< 1e-05

Variant	self-cleavage kobs at 10000 uM GlcN6P [s⁻¹]
AUAAAAGCGCCGGAACUACAGAAAUGUAGUUGACGAGGAGGAGGUCUAUCGAAUUUUCGGCGGAUGCCUCCAAA [A12G U46C]	0.000349 ± 5.9e-05
AUAAAAGCGCCCGAACUACAGAAAUGUAGUUAACGAGAAGGAGGUUUAUCGAAUUUUCGGCGGAUGCCUCCAAA [A12C G32A G38A]	< 1e-05
AUAAAAGCGCUAGAACUACAGAAAUGUAGUUGACGAGUAGGAGGUUUAUAGAAUUUUCGGCGGAUGCCUCCAAA [C11U G38U C50A]	< 1e-05
AUAAAAGCGCAAGAACUACAGAAAUGUAGUUGACGAGGAGGAGGUUUAUCGAAGUUUCGGCGGGUGCCGCCAAA [C11A U54G A64G U69G]	9.78e-05 ± 2.2e-05
AUAAAAGCGCCCGAACUACAGAAAUGUAGUUGACGAGGAGGAGGUUUAUCGUAUUUUCGGCGGAUGGCUCCAAA [A12C A52U C67G]	0.000146 ± 3.5e-05
AUAAAAGCGCUAGAACUACAGAAAUGUAUUUGACGAGGAUGAGGUUUAUCGAAUUUUCGGCUGAUGCCUCCAAA [C11U G29U G40U G62U]	< 1e-05
AUAAAAGCGCGAUAACUACAGAAAUGUAGUUGACGAGGAGGAGGUUUAUCGAAUUUUCGGGGGAUGCCUCCAAA [C11G G13U C61G]	< 1e-05
AUAAAAGCGUCAGAACUACAGAAAUGUAGUUGACGAGGAGGAGGUUUAUCGAAUCUUCGGCUGAUGCCUCCAAA [C10U U55C G62U]	< 1e-05
AUAAAAGCGCCUGAAAUACAGAAAUGUAGUUGACAAGGAGGCGGUUUAUCGAAUUUUCUGCGGAUGCCUCUAAA [A12U C16A G35A A42C G59U C71U]	< 1e-05
AUAAAAGCGCCGGAACUACAGAAAUGUAGUUGACGAGGAAGAGGUUUAUCGAAUCUUCGGCGGAUGCCUCCAAA [A12G G40A U55C]	9.22e-05 ± 2e-05
AUAAAAGCGCAAGAACUACAGAAAUGUAGAUGACGAGGAGGAGGUUUAUCGAAUUUUCGGCGGAUGCCUGCAAA [C11A U30A C70G]	5.91e-05 ± 1.5e-05
AUAAAAGCGCCUGAACUACAGAAAUGUAGUUGACGAGGAGAAGGUUUAUCGAACUUUCGGCGGAUGCCUCCAAA [A12U G41A U54C]	0.000963 ± 0.00021
AUAAAAGCGCCGGAACUACAGAAAUGUAGUUGACGCGGAGGAGGUUUAUCGAAUUUUCGGCGGAUGGCUCCAAA [A12G A36C C67G]	< 1e-05
AUAAAAGCGCCGGAACUACAGAAAUGUAGUUGACGAGGAGGAGGUUUAUCGAAUUUCGGGCGGAUGCCUCCAAA [A12G U57C C58G]	2.94e-05 ± 1.4e-05
AUAAAAGCGCCGGAACUACAGAAAUGUAGGUGACGAGGAGGAGGUUUAUCGAAUUUUAGGCGGAUGCCUCCAAA [A12G U30G C58A]	0.000483 ± 9.8e-05
AUAAAAGCGCGAGAACUACAGAAAUGUAGUUGACGAGAAGGAGGUUUCUCGAAUUUUCGCCCGAUGCUUCCAAA [C11G G38A A48C G60C G62C C68U]	< 1e-05
AUAAAAGCGCCUGAACUACAGAAAUGUAGUUGACGAGGAGGAGUUUUAUCGGAUUUUCGGCGGAUGCCUCCAAA [A12U G44U A52G]	4.49e-05 ± 1.9e-05
AUAAAAGCGCCCGGACUACAGAAAUGUAGUUGACGAGGAGGAGGUUUAUCGAAAUUUCGGCGGAUGCCUCCAAA [A12C A14G U54A]	0.0236 ± 0.0056
